# Assay results as given in patent US20200095278A1 (USTAV ORGANICKE CHEMIE A BIOCHEMIE AV CR V V I, published 2020).
# No end group written: not given here.
# T1: E. coli rhomboid protease GlpG (E. coli, UniProt P09391 1-276, limits assumed)
# T1 sequence (looked up): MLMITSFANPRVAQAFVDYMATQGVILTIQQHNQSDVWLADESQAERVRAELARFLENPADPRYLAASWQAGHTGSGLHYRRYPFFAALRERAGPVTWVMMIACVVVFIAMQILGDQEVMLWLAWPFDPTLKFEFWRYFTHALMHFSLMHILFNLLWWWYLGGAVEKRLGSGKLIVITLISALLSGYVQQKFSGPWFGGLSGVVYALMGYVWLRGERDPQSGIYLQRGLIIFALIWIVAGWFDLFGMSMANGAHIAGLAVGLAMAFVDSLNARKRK
# Assays:
# [1] = target: T1, E. coli rhomboid protease GlpG; assay: cell-based or functional assay
# [2] = target: T1, E. coli rhomboid protease GlpG; assay: in vitro inhibition of rhomboid protease GlpG, as described (Ticha et al., 2017); printed as a Ki range
binder,measurement,setting,value
Ac-RVRHA-{keto‑C(:O)NH-pentyl} [Compound 8],"IC50 (µM), measured in vitro as described (Ticha et al., 2017)",[1],1.08 µM
Ac-RVRHA (not fully specified (C-terminus)) [Compound 3],"IC50 (µM), measured in vitro as described (Ticha et al., 2017)",[1],5.01 µM
Ac-RVRHA-{keto‑C(:O)NH-1‑phenylethyl} [Compound 5],"IC50 (µM), measured in vitro as described (Ticha et al., 2017)",[1],13.8 µM
Ac-RVRHA-{keto‑C(:O)NH-isopropyl} [Compound 2],"IC50 (µM), measured in vitro as described (Ticha et al., 2017)",[1],12.4 µM
"Ac-RVRHA (also: C-terminal Ala as alpha-ketoamide, -CO-CO-NH-(CH2)4-Ph, Structure is printed only as a drawing; Tail inferred from C39H62N14O7, MW 839.02; also called Cpd No. 11) [Compound 11]","IC50 (µM), measured in vitro as described (Ticha et al., 2017)",[1],0.15 µM
same,Ki,[2],10 to 100 nM
Ac-RVRHA-{keto‑C(:O)NH-neopentyl} [Compound 7],"IC50 (µM), measured in vitro as described (Ticha et al., 2017)",[1],2.15 µM
Ac-RVRHA-{keto‑C(:O)NH2} [Compound 1],"IC50 (µM), measured in vitro as described (Ticha et al., 2017)",[1],203 µM
"Ac-RVRHA (also: C-terminal Ala as alpha-ketoamide, -CO-CO-NH-(CH2)2-Ph, Structure is printed only as a drawing; Tail inferred from monoisotopic mass 810.461290, MW 810.96, and the NMR; It has the same mass as compound 5; also called Cpd No. 9) [Compound 9]","IC50 (µM), measured in vitro as described (Ticha et al., 2017)",[1],0.34 µM
same,Ki,[2],10 to 100 nM
Ac-RVRHA-{keto‑C(:O)NH-benzyl} [Compound 4],"IC50 (µM), measured in vitro as described (Ticha et al., 2017)",[1],7.64 µM
Ac-RVRHA-{keto‑C(:O)NH-ethoxycarbonylmethyl} [Compound 6],"IC50 (µM), measured in vitro as described (Ticha et al., 2017)",[1],4.24 µM
Ac-His-Ala (not fully specified (C-terminus)) [Compound 14],"IC50 (µM), measured in vitro as described (Ticha et al., 2017)",[1],48 µM
Ac-RVWHA-{keto‑C(:O)NH-4‑phenylbutyl} [Compound 16],"IC50 (µM), measured in vitro as described (Ticha et al., 2017)",[1],0.77 µM
"Ac-RVRHA (also: C-terminal Ala as alpha-ketoamide, -CO-CO-NH-CH2-(2,5-dimethylphenyl), Structure is printed only as a drawing; Tail inferred from C38H60N14O7, MW 824.99; also called Cpd No. 10) [Compound 10]","IC50 (µM), measured in vitro as described (Ticha et al., 2017)",[1],0.18 µM
same,Ki,[2],10 to 100 nM
Ac-Arg-His-Ala (not fully specified (C-terminus)) [Compound 13],"IC50 (µM), measured in vitro as described (Ticha et al., 2017)",[1],9.05 µM
